B1: Partner and localizer of BRCA2 (Mus musculus), Q3U0P1 (parent)
chain: MEELSGKPLSYAEKEKLKEKLAFLKKEYSRTLARLQRAKRAEKAKNSKKAIEDGVPQPEASSQLSHSESINKGFPCDTLQSNHLDEETGENISQILDVEPQSFNCKQGKEVLHTPRAGDIQGQLLHSTSSPDGKKEQNTLPGTTKTPWEKSSVSQEKEDYFDTNSLALLGKHRKGQESISRKNSRTPVSEKTHLLSLRSQIPDPPALVTGIGEGILIPPSGKSERGIDTLVRGNTVSAEAAVPSCTASNSNHSQHLEHTPPKSGCKITTQGPASSTNLVAQDQKMTIFTVNSVVYKAVRAHGQLPGSPNSCSVNDLTHSNLPANSTPNSKSLKSPSNTVDERNEPLQEDEILGPSKNFNLAAVSPPSTESQIHSCTMLEGLLFPAEYYVRTTRRMSDCQRKIALEAVIQSHLGVKKKELKKKTKATKAVVLSSEDTDQSESGMLDTSTGQSSSGSLSQKLLSPAEVSSPPGPAGKATTPPPGRGHRGKRKSARTSTLGHCQLLFPPCAALAVNRSKGKFTKHKCQNRGVVIHDFELPDEDFGLLKLEKLKSCSEKLIESPDSKNCGERLPREGNHAALEELQRDSETEGLEEELTVPPGEAYRPGPTLRRQPGSKDLSSSIVLFTPADTAAPNDSGRPPPSLCSPAFPILGMTPALGSQAAGETLSTEAAQPCSTSQPPLLGDTNSLVNNSKQCNSSACSPKPDTNLQASGRQGQPACDSDSGPQATPLPVESFTFRENQLCGNACLELHEHSTEQTETADRPACDNLNPGNLQLVSELKNPSSSCSVDVSAMWWERAGAKEPCIVTACEDVVSLWKPLNSLQWEKVHTWHFTEVPVLQIVPVPDVYNLICVALGSLEIREIRALLCSSGDDSEKQVLLKSGDIKAMLGLTKRRLVSSTGTFCNQQIQIMTFADDGSSKDEQLLMPPDETVLTFAEVQGTQEALLGTTTVNSIVIWNLKTGQLLKKMHIDDSYQASVCHGAYSEKGLLFVVVSQPCAKESQALGSPVFQLLVINPKTAQSVGVLLCSLPQGQAGRFLEGDVKDHVAAAVLTSGTIAIWDLLLGHCTALLPPVSDQSWSLVKWSGTDSHLLAGQKDGNIFIYRYF

Variants of: B1
Details: with brca1_human BRCA1, P38398
Sequence of brca1_human BRCA1, P38398 (P38398 whole entry, looked up): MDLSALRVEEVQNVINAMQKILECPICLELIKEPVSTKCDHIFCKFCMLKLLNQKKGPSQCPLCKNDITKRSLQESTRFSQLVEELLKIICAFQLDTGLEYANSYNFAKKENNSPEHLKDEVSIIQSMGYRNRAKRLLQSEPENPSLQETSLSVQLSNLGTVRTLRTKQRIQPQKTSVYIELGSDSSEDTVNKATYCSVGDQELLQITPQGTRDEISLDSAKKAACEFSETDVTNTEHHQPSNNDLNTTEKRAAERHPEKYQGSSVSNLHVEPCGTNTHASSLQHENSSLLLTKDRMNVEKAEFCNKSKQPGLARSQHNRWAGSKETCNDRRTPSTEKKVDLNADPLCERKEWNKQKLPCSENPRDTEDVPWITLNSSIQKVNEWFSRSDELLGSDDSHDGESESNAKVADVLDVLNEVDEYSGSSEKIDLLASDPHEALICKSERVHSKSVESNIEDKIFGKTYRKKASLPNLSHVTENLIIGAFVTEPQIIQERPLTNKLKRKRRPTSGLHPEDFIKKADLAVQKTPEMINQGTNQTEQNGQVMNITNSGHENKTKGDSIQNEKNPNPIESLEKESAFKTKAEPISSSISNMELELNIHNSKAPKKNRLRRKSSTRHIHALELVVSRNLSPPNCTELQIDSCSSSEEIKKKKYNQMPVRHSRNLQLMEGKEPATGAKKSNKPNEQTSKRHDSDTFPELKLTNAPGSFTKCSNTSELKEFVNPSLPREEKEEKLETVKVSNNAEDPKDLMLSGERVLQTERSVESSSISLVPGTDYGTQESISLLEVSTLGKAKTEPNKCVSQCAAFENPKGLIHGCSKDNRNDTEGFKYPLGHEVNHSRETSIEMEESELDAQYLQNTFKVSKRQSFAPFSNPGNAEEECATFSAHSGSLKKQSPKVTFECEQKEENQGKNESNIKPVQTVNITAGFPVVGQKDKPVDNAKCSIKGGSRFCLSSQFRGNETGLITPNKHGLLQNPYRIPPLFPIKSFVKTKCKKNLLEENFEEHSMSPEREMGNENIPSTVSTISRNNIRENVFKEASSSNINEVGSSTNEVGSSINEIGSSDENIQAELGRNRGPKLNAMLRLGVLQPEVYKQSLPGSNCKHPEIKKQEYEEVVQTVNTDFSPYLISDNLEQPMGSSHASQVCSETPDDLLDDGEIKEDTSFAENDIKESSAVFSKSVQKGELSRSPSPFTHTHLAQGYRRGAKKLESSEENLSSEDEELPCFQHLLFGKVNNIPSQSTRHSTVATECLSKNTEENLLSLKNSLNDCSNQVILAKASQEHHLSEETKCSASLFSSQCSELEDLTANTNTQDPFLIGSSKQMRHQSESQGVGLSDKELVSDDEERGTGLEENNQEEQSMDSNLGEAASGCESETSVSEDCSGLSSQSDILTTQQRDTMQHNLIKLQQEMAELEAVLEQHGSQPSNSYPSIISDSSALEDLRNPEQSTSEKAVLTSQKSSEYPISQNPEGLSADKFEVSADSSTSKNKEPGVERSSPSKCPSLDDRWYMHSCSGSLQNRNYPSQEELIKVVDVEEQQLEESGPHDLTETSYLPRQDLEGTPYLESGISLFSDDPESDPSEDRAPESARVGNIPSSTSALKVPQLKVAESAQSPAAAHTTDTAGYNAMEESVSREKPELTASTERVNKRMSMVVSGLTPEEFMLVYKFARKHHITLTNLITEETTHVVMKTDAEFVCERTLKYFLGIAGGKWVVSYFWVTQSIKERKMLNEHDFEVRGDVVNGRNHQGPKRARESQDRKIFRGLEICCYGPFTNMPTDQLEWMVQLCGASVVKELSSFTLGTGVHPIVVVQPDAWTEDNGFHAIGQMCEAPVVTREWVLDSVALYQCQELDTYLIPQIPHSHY

Variant	effect of a mutation on the interaction
Y28C	disrupting interaction
R37H	with no effect
K18R	with no effect
L35P	disrupting interaction

From IntAct's records for PubMed 28319063
